Patent US20210253716A1 (Regeneron, published 2021)

B1: mAb27242 (antibody, human IgG4 S228P, kappa, V domains shown)
VH: QVQLQQWGAGLLKPSETLSLTCAVYNGSFSSFYWSWIRQPPGKGLEWLGEINHRGRTNNNPSLASRVTISVDTSKSQFSLRLTSVTAADTATYYCTAHTRGFLYWGQGTRVTVSS
VL: DIQMTQSPSSLSASVGDRVTITCQASQDINNYLNWYQQKPGQAPNLLIYDVFNLLPGVPSRFSGSGSGTDFSFTISSLQPEDIATYYCQHYDDLPLTFGGGTTVAIRR
B2: mAb27400 (antibody, human IgG4 S228P, kappa, V domains shown)
VH: EMQLVESGGGLVQPGGSLKVSCAASGFTLSDSSIHWVRQASGKGLEWIGRIRSKPYSYATAYAASVKGRFTISRDDSKNTAFLQMSGLKTEDTAVYYCTGGDDFWGQGTLVTVSS
VL: DIQMTQSPSTLSASVGDRITITCRASQSISTWLAWYQQKPGKAPKLLIYKASSLEGGVPSRFSGSGSGTDFTLTISSLQPDDFATYYCQQYNTYWTFGQGTKVEIKR
B3: mAb27405 (antibody, human IgG4 S228P, kappa, V domains shown)
VH: QVQLVESGGGLVKPGGSLRLSCAASGFTFSDYYMSWIRQAPGKGLEWVSYISRTGSTKYYADSVKGRFTISRDNAKNSLNLQMSSLRAEDTAVYFCAREPLQHWGQGTLVTVSS
VL: KIVLTQTPLSSPVTLGQPASISCRSSQSLVHSDGDTYLSWLHQRPGQPPRLLIYTISNRLSGVPDRFSGSGAGTDFTLKISRVEAEDVGVYYCMQGTQFPALTFGGGTKVEIKR
B4: mAb27404 (antibody, human IgG4 S228P, kappa, V domains shown)
VH: QVQLVESGGGLVKPGGSLRLSCAASGFTFSDYYMSWIRQAPGKGLEWISFISRTGSTKYYADSVKGRFTISRDNAKNSLNLQMSSLRAEDTAVYFCAREPLQHWGQGTLVTVSS
VL: NVVLTQTPISSPVILGQPASISCRSSQSLVHSDGDTYLSWLHQRPGQPPRLLIYTVSNRVSGVPDRFSGSGAGTDFTLKISRVEAEDVGVYYCMQGTQFPALTFGGGTKVEIKR

Columns and labels:
[1] = molecular target: T1, mouse ACVR1 extracellular domain expressed with a C-terminal myc-myc-hexahistidine tag (mouse); assay: SPR (Biacore), mAb captured, 25 C; 25 C
T1 construct: also called mACVR1-MMH; mACVR1-mmh
T1 chain: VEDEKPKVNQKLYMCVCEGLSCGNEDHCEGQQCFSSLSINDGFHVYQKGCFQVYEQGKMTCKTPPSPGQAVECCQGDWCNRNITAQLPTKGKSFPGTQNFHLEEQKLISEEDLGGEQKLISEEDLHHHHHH
Protocol: (§1) Equilibrium dissociation constants (KD) for ACVR1 binding to purified anti-ACVR1 monoclonal antibodies were determined using a real-time surface plasmon resonance biosensor (SPR-Biacore), Biacore 4000. All binding studies were performed in 10 mM HEPES, 150 mM NaCl, 3 mM EDTA, and 0.05% v/v surfactant Tween-20, pH 7.4 (HBS-ET) running buffer at 25° C. and 37° C. The Biacore CM5 sensor surface was first derivatized by amine coupling with a monoclonal mouse anti-human Fc antibody (GE, #BR-1008-39 or REGN2567) to capture anti-ACVR1 monoclonal antibodies. […] ACVR1 reagents were then injected over anti-human Fc captured anti-ACVR1 monoclonal antibody surface for 2.5-3 minutes at a flow rate of 30 μL/minute, while the dissociation of monoclonal antibody bound ACVR1 reagent was monitored for 10-15 minutes in HBS-ET running buffer. Kinetic association rate constant (kₐ) and dissociation rate constant (kd) were determined by fitting the real-time sensorgrams to a 1:1 binding model using Scrubber 2.0c curve-fitting software. Binding dissociation equilibrium constants (KD) and dissociative half-lives (t½) were calculated from the kinetic rate constants as: […]

[2] = molecular target: T2, full length human ACVR1 (R206H) on HEK293/BRE-luc/hACVR1-R206H-clone H2 cells (human, UniProt Q04771 21-509); assay: cell-based or functional assay
T2 sequence: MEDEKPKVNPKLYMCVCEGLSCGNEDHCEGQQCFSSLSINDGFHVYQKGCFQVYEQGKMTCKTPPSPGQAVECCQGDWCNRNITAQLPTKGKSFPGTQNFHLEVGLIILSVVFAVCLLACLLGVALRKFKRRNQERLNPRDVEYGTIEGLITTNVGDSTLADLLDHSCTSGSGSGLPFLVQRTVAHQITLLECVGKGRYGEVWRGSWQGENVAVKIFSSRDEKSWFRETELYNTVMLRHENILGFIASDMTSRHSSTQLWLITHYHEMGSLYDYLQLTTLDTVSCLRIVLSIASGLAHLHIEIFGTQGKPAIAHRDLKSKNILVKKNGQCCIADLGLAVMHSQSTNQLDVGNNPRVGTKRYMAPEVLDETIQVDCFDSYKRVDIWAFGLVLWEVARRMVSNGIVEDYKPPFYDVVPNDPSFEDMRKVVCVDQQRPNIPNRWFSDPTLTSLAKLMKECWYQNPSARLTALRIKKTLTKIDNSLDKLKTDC

[3] = molecular target: T3, human ACVR1 extracellular domain expressed with a C-terminal myc-myc-hexahistidine tag (human); assay: SPR (Biacore), mAb captured, 25 C
T3 construct: also called hACVR1-MMH
T3 chain: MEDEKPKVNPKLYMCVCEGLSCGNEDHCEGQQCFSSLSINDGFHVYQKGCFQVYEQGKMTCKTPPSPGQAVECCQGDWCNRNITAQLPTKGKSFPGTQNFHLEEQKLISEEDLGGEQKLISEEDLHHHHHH
Protocol: as §1

[4] = molecular target: T4, human ACVR1 extracellular domain expressed with a C-terminal mouse IgG2a Fc tag (human); assay: SPR (Biacore), mAb captured, 25 C
T4 construct: also called hACVR1-mFc
T4 chain: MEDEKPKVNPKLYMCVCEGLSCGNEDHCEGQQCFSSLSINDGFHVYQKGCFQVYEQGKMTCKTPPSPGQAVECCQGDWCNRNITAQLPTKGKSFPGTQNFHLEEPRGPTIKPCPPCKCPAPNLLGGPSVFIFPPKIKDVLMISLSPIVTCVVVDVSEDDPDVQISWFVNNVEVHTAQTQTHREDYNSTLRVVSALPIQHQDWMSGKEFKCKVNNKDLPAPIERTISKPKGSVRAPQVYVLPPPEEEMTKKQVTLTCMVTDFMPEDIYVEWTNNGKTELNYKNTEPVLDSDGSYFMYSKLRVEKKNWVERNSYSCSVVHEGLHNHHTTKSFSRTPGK
Protocol: as §1

[5] = molecular target: T2, full length human ACVR1 (R206H) on …; assay: flow cytometry, 70 nM antibody, HEK293/hACVR1-R206H cells
Protocol: Cells were fixed using BD CytoFix™ (Becton Dickinson, #554655) and analyzed on either Hypercyt® or IQue® Flow Cytometers (Intellicyt®). Unstained and secondary antibody alone controls were also tested for all cell lines. The results were analyzed using ForeCyt® (IntelliCyt®) software to determine the geometric means of fluorescence for viable cells and binding ratios were calculated by normalizing the geometric mean value of the test condition by the geometric mean value of the corresponding unstained cells.

[6] = molecular target: T3, human ACVR1 extracellular domain …; assay: SPR (Biacore), mAb captured, 37 C
Protocol: as §1

[7] = molecular target: T4, human ACVR1 extracellular domain …; assay: SPR (Biacore), mAb captured, 37 C
Protocol: as §1

[8] = molecular target: T1, mouse ACVR1 extracellular domain …; assay: SPR (Biacore), mAb captured, 25 C
Protocol: as §1

[9] = molecular target: T3, human ACVR1 extracellular domain …; assay: SPR (Biacore), mAb captured, 37 C; 37 C
Protocol: as §1

[10] = molecular target: T1, mouse ACVR1 extracellular domain …; assay: SPR (Biacore), mAb captured, 37 C
Protocol: as §1

Row | Binder | % Inhibition, BRE-luc reporter, 2 nM hBMP7 [2] [%] | IC50 [M], BRE-luc reporter, 2 nM hBMP7 [2] [M] | 900 nM or 100 nM Ag Bound (RU) [3] [RU] | Kd [3] [nM] | koff [3] [s⁻¹] | kon [3] [M⁻¹ s⁻¹] | t½ [3] [min] | 100 nM Ag Bound (RU) [4] [RU] | Kd [4] [nM] | koff [4] [s⁻¹] | kon [4] [M⁻¹ s⁻¹] | t½ [4] [min] | MFI - Normalized to Unstained Control [5] [fold] | 900 nM or 100 nM Ag Bound (RU) [6] [RU] | Kd [6] [nM] | 100 nM Ag Bound (RU) [7] [RU] | Kd [7] [nM] | koff [7] [s⁻¹] | kon [7] [M⁻¹ s⁻¹] | t½ [7] [min] | further results
1 | B1 | 109 | 1.2e-09 | 63 | 1.56 | 0.000135 | 86800 | 86 | 199 | 0.202 | 2.9e-05 | 144000 | 398 | 1730 | 82 | 5.77 | 250 | 0.669 | 0.000189 | 282000 | 61 | Kd [1]: 602 nM; koff [1]: 0.144 s⁻¹; kon [1]: 238000 M⁻¹ s⁻¹; t½ [1]: 0.08 min; koff [6]: 0.00083 s⁻¹; kon [6]: 144000 M⁻¹ s⁻¹; t½ [6]: 14 min
2 | B2 | 96 | 2e-09 | – | – | – | – | – | 24 | 11.9 | 0.000142 | 11900 | 81 | 840 | – | – | 68 | 12.8 | 0.000163 | 12700 | 71 | 900 nM or 100 nM Ag Bound (RU) [8]: -3 RU; Kd [9]: 49 nM; koff [9]: 0.000476 s⁻¹; kon [9]: 9710 M⁻¹ s⁻¹; t½ [9]: 24 min; 900 nM or 100 nM Ag Bound (RU) [10]: 2 RU
3 | B3 | 107 | 7.6e-10 | 37 | 21 | 0.00147 | 69900 | 8 | 142 | 1.9 | 0.000201 | 106000 | 57 | 1560 | 52 | 44.4 | 185 | 3.18 | 0.000742 | 233000 | 16 | 900 nM or 100 nM Ag Bound (RU) [8]: 0 RU; binding result [8]: no binding (tested: 900 nM or 100 nM); koff [6]: 0.00528 s⁻¹; kon [6]: 119000 M⁻¹ s⁻¹; t½ [6]: 2.2 min; 900 nM or 100 nM Ag Bound (RU) [10]: 2 RU
4 | B4 | 109 | 8.8e-10 | 46 | 4.49 | 0.000446 | 99200 | 26 | 160 | 0.444 | 8.76e-05 | 198000 | 132 | 1870 | 67 | 7.63 | 216 | 1.11 | 0.000338 | 303000 | 34 | 900 nM or 100 nM Ag Bound (RU) [8]: 1 RU; binding result [8]: no binding (tested: 900 nM or 100 nM); koff [6]: 0.00183 s⁻¹; kon [6]: 240000 M⁻¹ s⁻¹; t½ [6]: 6 min; 900 nM or 100 nM Ag Bound (RU) [10]: 4 RU
